US8084213, “Selection” (Domantis Limited)

Legend:
[1] = biological target: T1, scArc-HA (pIE2 series, single-chain Arc repressor dimer) (Phage P22); assay: co-capture of DNA on anti-HA 3F10 surface, PCR detection; buffer C+ 100 mM KCl, 5 mM MgCl2, room temp; details: tags: C-terminal HA; chain copies: 2 scArc per operator (stated)
T1 chain: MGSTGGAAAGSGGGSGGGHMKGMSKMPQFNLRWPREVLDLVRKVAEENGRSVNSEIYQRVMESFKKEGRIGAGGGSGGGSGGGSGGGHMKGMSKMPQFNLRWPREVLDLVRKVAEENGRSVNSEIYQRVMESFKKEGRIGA
Experimental: In a typical solution expression experiment 1 μl of 1.7 nM template in 0.2 mg/ml tRNA is added to 25 μl EcoPro T7 in vitro translation mix Novagen), supplemented with 0.75 μl of 100 mM oxidized glutathione (Sigma), and incubated at 25° C. for four hours. During the translation reaction the streptavidin-coated PCR tubes, cut from Strep Thermofast 96-well plates (Abgene), are first incubated at room temperature for three hours with 50 μl of at least 40 nM biotinylated target protein in PBS. The coating buffer is thereafter removed and any remaining free biotin-binding sites are blocked with a 15 min pulse of 50 μg/ml biotinylated BSA in PBS. The pre-coated wells are thereafter three times washed with PBS and then filled with 100 μl of binding buffer C+ (100 mM KCl, 20 mM Tris, 5 mM MgCl_2, 0.05% Tween 20, 0.05 mM EDTA, 1% BSA). Upon completion of the translation reaction the products are diluted in Buffer C+ and applied to the pre-coated and blocked PCR tubes, allowed to bind for 30 min at room temperature and washed 4 times with 150 μl of Buffer C+. […]

[2] = biological target: scFv(31IJ1)-(KEAAA)6-scArc-HA (Phage P22 / human scFv?); assay: co-capture on protein A, protein L, fluorescein; with anti-HA 3F10; details: tags: N-terminal scFv fusion, C-terminal HA; chain copies: 2 scArc per operator (inferred)
Experimental: In the solution expression experiments 3 µl of 1.7 nM PCR-amplified pIE7aA, pIE7a2A, pIE7a3A, pIE7a4A, pIE7aA-scFv(31IJ1), pIE7a2A-scFv(31 Ul), pIE7a3A-scFv (31IJ1) or pIE7a4A-scFv(31IJ1) template in 0.2 mg/ml tRNA is added to 25 µl EcoPro T7 in vitro translation mix (Novagen), supplemented with 0.75 µl of 100 mM oxidized glutathione (Sigma) and 0.25 µl […] 3F10 αHA mAb (Roche). Each reactions is split into three 9 µl aliquots. Two of the three in vitro translation aliquots of pIE7aA-scFv(31IJ1), pIE7a2A-scFv(31IJ1), pIE7a3A-scFv(31IJ1) or pIE-7a4A-scFv(31IJ1) are immediately combined with the aliquots of pIE7aA, pIE7a2A, pIE7a3A or pIE7a4A expression reactions respectively, one before and the other after the four-hour incubation at 25° C.
During the translation reaction the streptavidin-coated PCR tubes, cut from Strep Thermofast 96-well plates (Abgene), are first incubated at room temperature for three hours with 50 µl of at least 40 nM biotinylated protein A (Sigma), protein L (Pierce) fluorescein (Molecular Probes) of BSA (Sigma) in PBS. The coating buffer is thereafter removed and any remaining free biotin-binding sites are blocked with a 15 min pulse of 50 µg/ml biotinylated BSA in PBS. The pre-coated wells are thereafter three times washed with PBS and then filled with 100 µl of binding buffer C+ (100 mM KCl, 20 mM Tris, 5 mM MgCl2, 0.05% Tween 20, 0.05 mM EDTA, 1% BSA). […]

B1: Arc operator, one copy, on linear genetic element (dsDNA)
DNA 1: ATGATAGAAGCACTCTACTAT
DNA 2: ATAGTAGAGTGCTTCTATCAT
B1: binds [1]; binds [2].
